From patent US7235629B2, “Functional fragment of the leptin receptor” (Vlaams Interuniversitair Instituut voor Biotechnologie VZW, priority 2000, dated 2007)

Tests used:
FLAG-tagged SOCS3 = molecular target: T1, FLAG-tagged SOCS3 (Rattus norvegicus, UniProt O88583); assay: Phosphopeptide affinity chromatography with anti-FLAG Western blot: SOCS3 binding to biotinylated leptin receptor peptides; conditions: lysates of about 3×10^7 HEK293T cells transfected with pMET7-fSOCS3; 5 nmoles biotinylated peptide on streptavidin-agarose; two hours at 4° C.
T1 construct: expressed in transfected cells; host or cells: HEK293T cells (transient transfection; cleared lysate used)
T1 sequence (O88583 1-225): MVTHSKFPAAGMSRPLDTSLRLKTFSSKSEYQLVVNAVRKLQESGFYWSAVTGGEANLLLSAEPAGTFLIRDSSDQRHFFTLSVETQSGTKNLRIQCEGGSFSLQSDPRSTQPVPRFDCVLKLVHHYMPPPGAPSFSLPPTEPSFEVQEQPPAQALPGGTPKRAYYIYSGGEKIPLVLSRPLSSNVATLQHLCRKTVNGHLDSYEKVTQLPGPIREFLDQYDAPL
Description: Monoclonal anti-FLAG antibody M2 was obtained from Sigma. Mouse recombinant leptin was purchased from R&D Systems. Peptides were synthesized using standard Fmoc-amino-acid solid phase chemistry on an Applied Biosystems Model 431A peptide synthesizer. Biotin was manually esterified following similar procedures as on the synthesizer and added to the reaction mixture. Incorporation of phosphotyrosine was realized by using a protected Fmoc-tyrosine-phosphobenzylester (Novabiochem). After purification, the mass of the peptides was confirmed by mass spectrometry. Sequences of the peptides were biotin-QRQPSVK(p)Y985ATLVSNDK (SEQ ID NO:7) and biotin-NHREKSVC(p)Y1077 LGVTSVNR (SEQ ID NO:8).
Approximately 10^6 HEK293T cells were lysed in 150 μl 2× loading buffer. After sonication, 30 μl was loaded on a 10% polyacrylamide gel. […] Blotting efficiency was checked using PonceauS staining (Sigma).
For phosphopeptide affinity chromatography, approximately 3×10^7 HEK293T cells transiently transfected as indicated were lysed in lysis buffer (20 mM Hepes pH 7; 1 mM MgCl2; 10 mM KCl; 0.5 mM DTT; 150 mM NaCl; 0.5% NP40; 1 mM NaVO4; 5 mM NaF; 20% glycerol; Complete™ Protease Inhibitor Cocktail (Roche)). Precipitated material was cleared by 5 minutes centrifugation at 10,000 g. To eliminate a-specific interactions, supernatants were brought on a pre-column containing Sepharose 4B beads prior to phosphopeptide affinity chromatography on streptavidin-coupled agarose beads (Sigma). Peptide concentrations were determined by a colorimetric assay using alkaline hydrolysis and a ninhydrine reagent. Fifty μl of streptavidin-agarose slurry was incubated with 5 nmoles of peptide for each reaction. Cleared lysate was incubated for two hours at 4° C. under slow stirring. […]
The interaction sites of SOCS3 with the leptin receptor were confirmed using a biochemical approach. FLAG-tagged SOCS3 was expressed upon transient transfection of pMET7-fSOCS3 in HEK293T cells and was analyzed for binding to (phospho)-tyrosine-containing peptides matching the two motifs within the leptin receptor. […]

[1] = molecular target: murine leptin receptor, long isoform, wild type (mouse), P48356; assay: cell-based or functional assay
[2] = molecular target: murine leptin receptor, long isoform, Y1077F (mouse), P48356; assay: cell-based or functional assay
[3] = molecular target: murine leptin receptor, long isoform, Y985F (mouse), P48356; assay: cell-based or functional assay
leptin receptor [4] = assay: Leptin-induced pGL3-rPAP1-luci reporter induction in PC12 LR8 cells transiently expressing SOCS3; format: cell-based, mouse; conditions: leptin 24 hours
Protocol: FIG. 1: Expression of SOCS3 leads to inhibition of leptin-induced rPAP1 expression in PC12 cells. PC12 LR8 cells were co-transfected with a plasmid encoding SOCS3 (pMET7fSOCS3) or empty vector (mock, pMET7), and a pGL3-rPAP11 reporter construct. Forty-eight hours after transfection, the cells were stimulated with leptin or left untreated. Luciferase activity was measured in triplicate after 24 hours. CPS: absolute luminescence counts per second; NS: nonstimulated negative control.
Culture conditions and transient transfection procedures for PC12 and generation of the PC12LR8 cell line were as previously described. (Eyckerman et al., 1999; Waelput et al., 2000.)
(§1) Luciferase assays, binding assays using Leptin-SEAP and Northern blot hybridizations with SOCS3 and actin probes were described previously by Eyckerman et al. (1999). β-galactosidase activity was measured using the Galacto-Star™ chemiluminescent detection kit (Tropix) and a Topcount Chemiluminescence Counter (Packard).
Through representational difference analysis, a PCR-based differential expression screening in PC12 cells expressing the mouse leptin receptor, several leptin-induced transcripts (including SOCS3) were identified. In order to check the inhibitory role of SOCS3 on leptin signaling in the cell systems used, an expression vector containing rat SOCS3 was generated. […]

leptin receptor [5] = assay: rPAP1-luciferase reporter assay of leptin signalling in HEK293T cells co-transfected with leptin receptor variants and SOCS3; format: cell-based, murine; conditions: 24 hours leptin
Protocol: HEK293T cells were maintained in a 10% CO2 humidified atmosphere at 37° C. and grown using DMEM with 4500 mg/l glucose, 10% fetal bovine serum and 50 μg/ml gentamycin (all from LifeTechnologies). Typically, 4×10^5 cells were seeded the day before transfection in a 6-well plate and transfected overnight with approximately 2 μg plasmid DNA using a standard calcium phosphate precipitation procedure. One day after transfection, cells were re-suspended with Cell Dissociation Agent (LifeTechnologies), seeded in a black well plate (Costar) and stimulated overnight with […] leptin or left unstimulated.
as §1
Based on its functional similarity with the gp130 chain, the leptin receptor was tested for interaction with SOCS3. Leptin receptor variants containing Y to F mutations at positions Y985, Y1077, or at both sites, were tested in a functional assay based on rPAP1-induction. Signalling via the leptin receptor variants was analyzed upon transient transfection in HEK293T cells with the pXP2d2-rPAP11uci and the FLAG-tagged pMET7-fSOCS3 expression construct. Luciferase activity data were normalized by co-transfection with pUT651 and a β-galactosidase activity assay.
Expression of leptin receptor variants and SOCS3 were confirmed, respectively, by a binding assay using a leptin-SEAP fusion protein and Western blot analysis using an anti-FLAG antibody (FIG. 3). LR expression levels were measured on transfected cells by incubation for 90 minutes with Leptin-SEAP fusion protein with or without excess leptin (100×). The transfected cells were stimulated for 24 hours with leptin or left untreated. Luciferase measurements were performed in triplicate and were normalized by co-transfection with the pUT651 β-galactosidase construct and a β-galactosidase activity assay. The results indicated a strong inhibitory activity of SOCS3 (80-90% inhibition) when the wild-type or the mutant Y1077F leptin receptor was expressed, and a moderate inhibition (30-50% inhibition) upon expression of a Y985F receptor variant.

murine leptin receptor, long isoform, Y985F (mouse), P48356, sequence (P48356 22-1162 Y985F): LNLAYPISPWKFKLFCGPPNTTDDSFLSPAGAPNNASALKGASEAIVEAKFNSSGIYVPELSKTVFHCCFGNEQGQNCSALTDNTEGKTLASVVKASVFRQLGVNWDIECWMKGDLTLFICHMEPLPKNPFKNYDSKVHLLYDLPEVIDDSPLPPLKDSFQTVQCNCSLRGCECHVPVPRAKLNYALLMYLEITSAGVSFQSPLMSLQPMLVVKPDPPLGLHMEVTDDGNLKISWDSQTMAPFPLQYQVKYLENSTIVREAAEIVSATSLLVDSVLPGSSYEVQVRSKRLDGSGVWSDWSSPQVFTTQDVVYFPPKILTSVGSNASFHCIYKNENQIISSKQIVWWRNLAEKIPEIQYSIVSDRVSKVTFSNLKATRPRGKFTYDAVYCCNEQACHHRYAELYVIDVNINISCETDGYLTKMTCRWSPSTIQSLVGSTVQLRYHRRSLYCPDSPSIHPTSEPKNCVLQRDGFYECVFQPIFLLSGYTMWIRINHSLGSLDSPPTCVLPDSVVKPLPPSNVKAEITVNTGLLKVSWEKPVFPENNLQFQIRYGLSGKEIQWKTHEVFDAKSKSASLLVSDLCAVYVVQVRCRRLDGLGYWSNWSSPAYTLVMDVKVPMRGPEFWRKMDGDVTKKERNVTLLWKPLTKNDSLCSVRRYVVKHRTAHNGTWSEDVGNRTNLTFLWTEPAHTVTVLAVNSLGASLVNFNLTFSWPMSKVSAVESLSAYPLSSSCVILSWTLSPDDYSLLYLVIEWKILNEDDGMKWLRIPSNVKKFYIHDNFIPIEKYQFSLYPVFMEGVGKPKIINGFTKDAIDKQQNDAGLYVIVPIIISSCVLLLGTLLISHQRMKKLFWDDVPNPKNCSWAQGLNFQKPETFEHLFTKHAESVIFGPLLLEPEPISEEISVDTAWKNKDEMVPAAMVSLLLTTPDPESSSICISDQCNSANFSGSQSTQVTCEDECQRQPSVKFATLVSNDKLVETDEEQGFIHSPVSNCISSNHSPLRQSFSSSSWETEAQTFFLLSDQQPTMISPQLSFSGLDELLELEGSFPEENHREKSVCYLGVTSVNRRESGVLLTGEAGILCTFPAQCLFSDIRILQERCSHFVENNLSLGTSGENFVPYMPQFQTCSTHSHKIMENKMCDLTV
murine leptin receptor, long isoform, wild type (mouse), P48356, sequence (P48356 22-1162): as the sequence (P48356 22-1162 Y985F) above, with F964Y counted along it
murine leptin receptor, long isoform, Y1077F (mouse), P48356, sequence (P48356 22-1162 Y1077F): as the sequence (P48356 22-1162 Y985F) above, with F964Y, Y1056F counted along it

Molecule: biotin-QRQPSVK(p)Y985ATLVSNDK (SEQ ID NO:7) [phosphorylated Y985 peptide]
- binding of SOCS3 to peptide (Western blot, anti-FLAG antibody) (FLAG-tagged SOCS3): clear and specific binding

Molecule: biotin-NHREKSVC(p)Y1077 LGVTSVNR (SEQ ID NO:8) [phosphorylated Y1077 peptide]
- binding of SOCS3 to peptide (Western blot, anti-FLAG antibody) (FLAG-tagged SOCS3): binds specifically to the phosphorylated Y1077 peptide, but apparently with a much lower affinity

Molecule: biotin-QRQPSVK(p)Y985ATLVSNDK (SEQ ID NO:7) [non-phosphorylated peptide]
- binding of SOCS3 to peptide (Western blot, anti-FLAG antibody) (FLAG-tagged SOCS3): did not bind any SOCS3 protein

B1: FLAG-tagged rat SOCS3 (expressed from pMET7fSOCS3), O88583 1-225 (protein)
chain: MDYKDDDDKMVTHSKFPAAGMSRPLDTSLRLKTFSSKSEYQLVVNAVRKLQESGFYWSAVTGGEANLLLSAEPAGTFLIRDSSDQRHFFTLSVETQSGTKNLRIQCEGGSFSLQSDPRSTQPVPRFDCVLKLVHHYMPPPGAPSFSLPPTEPSFEVQEQPPAQALPGGTPKRAYYIYSGGEKIPLVLSRPLSSNVATLQHLCRKTVNGHLDSYEKVTQLPGPIREFLDQYDAPL
- inhibition of leptin-induced rPAP1 luciferase reporter [1]: 80 to 90 % inhibition
- inhibition of leptin-induced rPAP1 luciferase reporter [2]: 80 to 90 % inhibition
- inhibition of leptin-induced rPAP1 luciferase reporter [3]: 30 to 50 % inhibition
- inhibition of leptin-mediated reporter induction (leptin receptor [4]): marked inhibition
- inhibition of leptin signalling (rPAP1 luciferase) (leptin receptor [5]; Y985F receptor variant): 30-50 % inhibition
- inhibition of leptin signalling (rPAP1 luciferase) (leptin receptor [5]; double Y985/1077F mutant): no inhibition was observed
- inhibition of leptin signalling (rPAP1 luciferase) (leptin receptor [5]; mutant Y1077F leptin receptor): 80-90 % inhibition
- inhibition of leptin signalling (rPAP1 luciferase) (leptin receptor [5]; wild-type leptin receptor): 80-90 % inhibition
